Residue numbers refer to the chain shown, from its start.
T1: human high affinity trimeric IL-2 receptor (CD25/CD122/CD132) (human, UniProt P01589 22-272; P14784 27-551; P31785 23-369)
T1 sequence 1: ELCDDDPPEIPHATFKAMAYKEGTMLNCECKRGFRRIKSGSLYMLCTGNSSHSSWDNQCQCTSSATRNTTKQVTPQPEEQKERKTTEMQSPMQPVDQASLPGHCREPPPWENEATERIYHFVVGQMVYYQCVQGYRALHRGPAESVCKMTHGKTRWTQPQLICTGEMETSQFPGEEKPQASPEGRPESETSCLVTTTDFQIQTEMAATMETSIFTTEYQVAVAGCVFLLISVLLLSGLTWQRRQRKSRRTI
T1 sequence 2: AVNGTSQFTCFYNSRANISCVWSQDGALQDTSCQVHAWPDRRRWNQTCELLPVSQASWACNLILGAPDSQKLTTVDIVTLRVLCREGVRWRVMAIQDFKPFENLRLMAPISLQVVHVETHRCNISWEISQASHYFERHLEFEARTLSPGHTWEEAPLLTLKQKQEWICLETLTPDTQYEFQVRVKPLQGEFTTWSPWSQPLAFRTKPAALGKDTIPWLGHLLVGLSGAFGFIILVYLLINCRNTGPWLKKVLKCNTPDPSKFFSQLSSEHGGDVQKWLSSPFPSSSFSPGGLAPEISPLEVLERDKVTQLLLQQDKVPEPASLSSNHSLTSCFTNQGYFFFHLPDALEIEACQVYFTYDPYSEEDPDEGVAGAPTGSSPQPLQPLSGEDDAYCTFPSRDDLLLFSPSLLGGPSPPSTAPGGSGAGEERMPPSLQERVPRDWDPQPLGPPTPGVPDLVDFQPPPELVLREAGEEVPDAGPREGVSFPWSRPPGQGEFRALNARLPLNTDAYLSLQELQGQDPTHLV
T1 sequence 3: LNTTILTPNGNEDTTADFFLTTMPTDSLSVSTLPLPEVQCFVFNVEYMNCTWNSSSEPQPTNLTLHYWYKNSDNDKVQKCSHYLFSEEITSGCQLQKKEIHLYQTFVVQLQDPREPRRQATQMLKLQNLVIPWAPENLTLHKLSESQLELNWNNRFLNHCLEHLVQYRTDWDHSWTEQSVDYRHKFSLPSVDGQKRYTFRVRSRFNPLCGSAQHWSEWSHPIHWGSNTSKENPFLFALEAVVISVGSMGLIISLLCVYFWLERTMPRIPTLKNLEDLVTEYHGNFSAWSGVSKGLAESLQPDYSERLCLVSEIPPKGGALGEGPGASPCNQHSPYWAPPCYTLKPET

B1: TEH (ligand)
cytokine: APTSSSTKKTQLQLEHLTLDLEMILNGINNYKNPKLTRMLTFKFYMPKKATELKHLQCLEEELKPLEEVLNLAQSKNFHLRPRDLISNINVIVLELKGSETTFMCEYADETATIVEFLNRWITFCHSIISTLT
B2: RAH (ligand)
cytokine: B1 cytokine with T18R, E22A
B3: RWH (ligand)
cytokine: B1 cytokine with T18R, E22W
B4: RFH (ligand)
cytokine: B1 cytokine with T18R, E22F
B5: RMH (ligand)
cytokine: B1 cytokine with T18R, E22M
B6: RKH (ligand)
cytokine: B1 cytokine with T18R, E22K
B7: RLH (ligand)
cytokine: B1 cytokine with T18R, E22L
B8: RGH (ligand)
cytokine: B1 cytokine with T18R, E22G

molecular target: T1, human high affinity trimeric IL-2 …; assay: cell-based or functional assay

pSTAT5 ratio YT CD25/YT, dilution factor 2, lower table | pSTAT5 ratio YT CD25/YT, dilution factor 4, lower table | pSTAT5 ratio YT CD25/YT, dilution factor 8, lower table | pSTAT5 ratio YT CD25/YT, dilution factor 16, lower table | pSTAT5 ratio YT CD25/YT, dilution factor 32, lower table | pSTAT5 ratio YT CD25/YT, dilution factor 64, lower table | pSTAT5 ratio YT CD25/YT, dilution factor 128, lower table | Binder
0.5 | 0.6 | 0.9 | 1.3 | 1.9 | 3.3 | 5.2 | B1
0.6 | 0.7 | 0.8 | 1.2 | 1.4 | 2.3 | 3.7 | B2
0.8 | 0.8 | 1.2 | 2 | 3 | 5 | 9.1 | B3
0.7 | 0.8 | 1.3 | 2.5 | 4.3 | 7.4 | 10.6 | B4
0.6 | 0.8 | 1.1 | 1.4 | 2.3 | 3.9 | 5.1 | B5
1 | 1.1 | 1.8 | 3 | 5.5 | 8.1 | 11 | B6
0.8 | 1.1 | 1.5 | 2.5 | 3.3 | 4.9 | 6.7 | B7
0.6 | 0.8 | 1.1 | 2.1 | 3.4 | 5.5 | 6.9 | B8

From US20210275641A1 (SYNTHEKINE, published 2021)
